± gives the uncertainty stated by the source.
B1: Serine/threonine-protein kinase LATS1, residues 98 to 141; numbered along this chain, O95835 (parent)
chain: TSEVNPQMLQDLQAAGFDEDMVIQALQKTNNRSIEAAIEFISKM

Variants of: B1
Test: abundance fitness (aPCA) (normalised: wild type 0, dead -1); higher = more abundant; growth selection in yeast, the domain comes from the species named
Conditions: Homo sapiens

First: TSEVNPQMLQDLQAAGFDKDMVIQALQKTNNRSIEAAIEFISKM [E19K]
Second: TSEVNPQMLQDLQAAGFDDDMVIQALQKTNNRSIEAAIEFISKM [E19D]
The abundance fitness of the first is higher: 0.08 ± 0.045 for the first, -0.154 ± 0.041 for the second.

First: TSEVNPQMLQDLQAAGFDEDMNIQALQKTNNRSIEAAIEFISKM [V22N]
Second: TSEVNPQMLQDLQAAGFDEDMWIQALQKTNNRSIEAAIEFISKM [V22W]
The abundance fitness of the first is higher: -0.448 ± 0.092 for the first, -0.796 ± 0.065 for the second.

Compared with TSEVNPQMLQDLQAAGFDEDMTIQALQKTNNRSIEAAIEFISKM [V22T], TSEVNPQMLQDLQAAGFDEDMHIQALQKTNNRSIEAAIEFISKM [V22H] is lower in abundance fitness: -0.262 ± 0.048 for the first, -0.618 ± 0.12 for the second.

Compared with TSEVNPQMLQDLQAAGFDEDMFIQALQKTNNRSIEAAIEFISKM [V22F], TSEVNPQMLQDLQAAGFDEDMVIQALVKTNNRSIEAAIEFISKM [Q27V] is higher in abundance fitness: -0.807 ± 0.17 for the first, -0.043 ± 0.039 for the second.

First: TSEVNPQMLQDLQAAGFDEDMVIQALCKTNNRSIEAAIEFISKM [Q27C]
Second: TSEVNPQMLQDLQAAGFDEDMVIQALQKTNNRSIEAAIESISKM [F40S]
The abundance fitness of the first is lower: -0.273 ± 0.042 for the first, -0.131 ± 0.037 for the second.

Compared with TSEVNPQMLQDLQAAGFDEDMVIQALQKKNNRSIEAAIEFISKM [T29K], TSEVNPQMLQDLQAAGFDEDMVIQALQKCNNRSIEAAIEFISKM [T29C] is higher in abundance fitness: -0.806 ± 0.1 for the first, -0.375 ± 0.043 for the second.

Going from TSEVNPQMLQDLQAAGFDEDMVIQALQKMNNRSIEAAIEFISKM [T29M] to TSEVNPQMLQDLQAAGFDEDMVIQALQKTNNRSIEAAIEFVSKM [I41V], the abundance fitness rises from -0.919 ± 0.1 to -0.411 ± 0.035.

Going from TSEVNPQMLQDLQAAGFDEDMVIQALQKTNNRSIEAAIEFPSKM [I41P] to TSEVNPQMLQDLQAAGFDEDMVPQALQKTNNRSIEAAIEFISKM [I23P], the abundance fitness falls from -0.232 ± 0.06 to -0.591 ± 0.095.

Going from TSEVNPQMLQDLQAAGFDEDMVWQALQKTNNRSIEAAIEFISKM [I23W] to TSEVNPQMLQDLQAAGFDEDMVYQALQKTNNRSIEAAIEFISKM [I23Y], the abundance fitness rises from -0.373 ± 0.045 to -0.211 ± 0.064.

Compared with TSEVNPQGLQDLQAAGFDEDMVIQALQKTNNRSIEAAIEFISKM [M8G], TSEVNPQMLQDLQAAGFDEDMVIQALQKTNNRSIEAAIEFISNM [K43N] is higher in abundance fitness: -0.583 ± 0.038 for the first, -0.038 ± 0.18 for the second.

Going from TSEVNPQMLQDLQAAGFDEDMVIQALQKTNNTSIEAAIEFISKM [R32T] to TSEVNPQMLQDLQAAGFDEDMVIQALQKTNNPSIEAAIEFISKM [R32P], the abundance fitness falls from -0.004 ± 0.042 to -0.434 ± 0.043.

Going from TSEVNPQMLQDLQAAGFDEDMVIQALQKTNNASIEAAIEFISKM [R32A] to TSEVNPQMLQDLQAAGFDEDMVIQALQKTNNRSIEAAIHFISKM [E39H], the abundance fitness falls from 0.089 ± 0.039 to -0.084 ± 0.082.

First: TSEVNPQMLQDLQAAGFDEDMVIQALQKTNNRSIEAAICFISKM [E39C]
Second: TSEVNPQMLQDLQAAGFDEDMVIQALQKTNNRSIEAAIAFISKM [E39A]
The abundance fitness of the first is lower: -0.361 ± 0.075 for the first, -0.103 ± 0.035 for the second.

Going from TSEVNPQMLQDLQAAGFDEDMVIQALQKTNNRSIEAAISFISKM [E39S] to TKEVNPQMLQDLQAAGFDEDMVIQALQKTNNRSIEAAIEFISKM [S2K], the abundance fitness rises from -0.146 ± 0.036 to 0.021 ± 0.059.

First: TSEVNPQMLQDLQAAGFDEDMVIQALQKTNNRSIEACIEFISKM [A37C]
Second: TSEVNPQMLQDLQAAGFDEDMVIQALQKTNNRSIEAHIEFISKM [A37H]
The abundance fitness of the first is higher: -0.376 ± 0.058 for the first, -0.621 ± 0.18 for the second.

First: TSEVNPQMLQDLQAAGFDEDMVIQALQKTNNRSIEATIEFISKM [A37T]
Second: TSEVNPQMLQDLQAAGFDEDMVIQALQKTNNRSIEALIEFISKM [A37L]
The abundance fitness of the first is higher: -0.391 ± 0.08 for the first, -0.728 ± 0.06 for the second.

Going from TSEVNPQMLQDLQAAGFDEDMVIRALQKTNNRSIEAAIEFISKM [Q24R] to TSEVNPQMLQDLQAAGFDEDMVIHALQKTNNRSIEAAIEFISKM [Q24H], the abundance fitness rises from -0.103 ± 0.033 to 0.055 ± 0.048.

Compared with TSEVNPQMLQDLQAAGFDEDMVIKALQKTNNRSIEAAIEFISKM [Q24K], TSEVNPQMLQDLQAAGFDEDMVIQALQKTNNRSIEAAHEFISKM [I38H] is lower in abundance fitness: 0.035 ± 0.06 for the first, -0.203 ± 0.076 for the second.

First: TSEVNPQMLQDLQAAGFDEDMVIQALQKTNNRSIEAAREFISKM [I38R]
Second: TSEVNPQMLQDLQAAGFDEDMVIQALQKTNNRSIEAACEFISKM [I38C]
The abundance fitness of the first is higher: 0.003 ± 0.03 for the first, -0.119 ± 0.043 for the second.

First: TSEVNPQMLQDLQAAGFDEDMVIQALQKTNNRSIEAAAEFISKM [I38A]
Second: TSEVNPQMLQDLQAAGFDEDMVIQALQKTNNRSIEWAIEFISKM [A36W]
The abundance fitness of the first is higher: -0.048 ± 0.037 for the first, -0.825 ± 0.06 for the second.

TSEVNPQMLQDLQAAGFDEDMVIQALQKTNNRSIENAIEFISKM [A36N] and TSEVNPQMLQDLQAAGFDEDMVIQALQKTNNRSIELAIEFISKM [A36L] are within error of each other in abundance fitness: -0.327 ± 0.13 for the first, -0.388 ± 0.034 for the second.

Compared with TSEVNPQMLQDLQAAGFDEDMVIQALQKTNNRSIEAAIEFISKA [M44A], TSEVNPQMLQDLQAAGFDEDMVIQALQKTNNRSIEAAIEFISKP [M44P] is lower in abundance fitness: -0.053 ± 0.034 for the first, -0.148 ± 0.056 for the second.

TSEVNPQMLQDLIAAGFDEDMVIQALQKTNNRSIEAAIEFISKM [Q13I] and TSEVNPQMLQDLKAAGFDEDMVIQALQKTNNRSIEAAIEFISKM [Q13K] are within error of each other in abundance fitness: 0.071 ± 0.064 for the first, 0.084 ± 0.052 for the second.

TSEVNPQMLQDLDAAGFDEDMVIQALQKTNNRSIEAAIEFISKM [Q13D] and TSEVNPQMLQDAQAAGFDEDMVIQALQKTNNRSIEAAIEFISKM [L12A] are within error of each other in abundance fitness: -0.538 ± 0.11 for the first, -0.607 ± 0.049 for the second.

First: TSEVNPQMLQDHQAAGFDEDMVIQALQKTNNRSIEAAIEFISKM [L12H]
Second: TSEVNPQMLQDLQAAGFDEDMVIQALQKTNNRSIGAAIEFISKM [E35G]
The abundance fitness of the first is lower: -0.573 ± 0.12 for the first, -0.173 ± 0.031 for the second.

Going from TSEVNPQMLQDLQAAGFDEDMVIQALQKTNNRSIDAAIEFISKM [E35D] to TSEVNPLMLQDLQAAGFDEDMVIQALQKTNNRSIEAAIEFISKM [Q7L], the abundance fitness falls from 0.005 ± 0.054 to -0.296 ± 0.04.

Going from TSEVNPEMLQDLQAAGFDEDMVIQALQKTNNRSIEAAIEFISKM [Q7E] to TSEVNPYMLQDLQAAGFDEDMVIQALQKTNNRSIEAAIEFISKM [Q7Y], the abundance fitness falls from -0.036 ± 0.051 to -0.345 ± 0.073.

TSEVNPQMLQDLQAAGFDEDMVIQHLQKTNNRSIEAAIEFISKM [A25H] and TSEVNPQMLQDLQAAGFDEDMVIQVLQKTNNRSIEAAIEFISKM [A25V] are within error of each other in abundance fitness: -0.937 ± 0.21 for the first, -0.68 ± 0.05 for the second.

TSEVNPQMLQDLQAAGFDEDMVIQKLQKTNNRSIEAAIEFISKM [A25K] and TSEVNPQMLQDLQAAGFDEDMVIQALQPTNNRSIEAAIEFISKM [K28P] are within error of each other in abundance fitness: -0.684 ± 0.083 for the first, -0.74 ± 0.072 for the second.

Reference: the Human Domainome abundance scans (Beltran et al. 2025)
